Assay results reported in patent US20260049143A1 (KYMAB, published 2026).

B1: STIM003_457 (bispecific antibody, V domains shown, not shown: a dimerising Fc or GST)
VH: EVQLVESGGGVVRPGGSLRLSCVASGVTFDDYGMSWVRQAPGKGLEWVSGINWNGGDTDYSDSVKGRFTISRDNAKNSLYLQMNSLRAEDTALYYCARDFYGSGSYYHVPFDYWGQGILVTVSS
VL: EIVLTQSPGTLSLSPGERATLSCRASQSVSRSYLAWYQQKRGQAPRLLIYGASSRATGIPDRFSGDGSGTDFTLSISRLEPEDFAVYYCHQYDMSPFTFGPGTKVDIK
notes: mAb^2 IgG1; also called ST1M003_457; STIM003_457 mAb^2
B2: STIM001_457 (bispecific antibody, V domains shown, not shown: a dimerising Fc or GST)
VH: QVQVVQSGAEVKKPGASVKVSCKASGYTFSTFGITWVRQAPGQGLEWMGWISAYNGDTNYAQNLQGRVIMTTDTSTSTAYMELRSLRSDDTAVYYCARSSGHYYYYGMDVWGQGTTVTVSS
VL: DIVMTQSPLSLPVTPGEPASISCRSSQSLLHSNEYNYLDWYLQKPGQSPQLLIFLGSNRASGVPDRFSGSGSGTDFTLKITRVEAEDVGIYYCMQSLQTPLTFGGGTKVEIK
notes: mAb^2 IgG1; also called STIM001_457 mAb^2

Tests used:
[1] = target: T1, mouse ICOS-mFc (Chimerigen) (mouse, UniProt Q9WVS0 21-141, limits assumed); experiment: DELFIA ELISA, coated mouse ICOS-mFc, N=3
T1 construct: Bought fusion; also called mICOS; recombinant mouse ICOS protein; not shown: mouse Fc
T1 sequence: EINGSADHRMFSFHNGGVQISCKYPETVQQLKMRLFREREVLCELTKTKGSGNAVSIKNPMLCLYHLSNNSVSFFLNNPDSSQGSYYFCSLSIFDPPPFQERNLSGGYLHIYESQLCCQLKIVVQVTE
Procedure: (§1) Recombinant ICOS proteins, human ICOS-mFc or mouse ICOS-mFc (Chimerigen) were diluted in 1×PBS and added to Black Hi-bind plates (Griener) at 1 μg/ml, 50 μl/well. Recombinant PD-L1 proteins, human PD-L1-Flag-His or mouse-His were diluted in 1×PBS and added to Black Hi-bind plates (Griener) at 4 μg/ml, 50 μl/well. The plates were left overnight at 4° C. The next day plates were washed 3× with 300 μl/well of 1×PBS+0.1% Tween and blocked with 200 μl/well of 1×PBS+1% BSA blocking buffer for 1 hr at RT on a plate shaker. Plates were washed 3× with 300 μl/well of 1×PBS+0.1% Tween.
(§2) However, human-PD-L1 mAb² antibodies were diluted in 1×PBS+0.1% BSA buffer and diluted 1 in 2 from a starting working concentration of 0.066 μM over an 11 point titration. Titrated antibodies were added to the plates, 50 μl/well and left to incubate for 1 hr at R.T on a plate shaker. Plates were washed 3× with 300 μl/well of 1×PBS+0.1% Tween.
(§3) DELFIA® Eu-labelled Anti-human IgG(Perkin-Elmer) was diluted 1:500 in DELFIA Assay buffer (Perkin-Elmer) and added to the assay plate (50 μl/well), left to incubate for 1 hr at RT on a plate shaker. […] After incubation, assay was read on Envision plate reader (Perkin Elmer), Time-resolved fluorescence (TRF) was measured at 615 nm.

[2] = target: T2, human ICOS-mFc (Chimerigen) (human, UniProt Q9Y6W8 21-140, limits assumed); experiment: DELFIA ELISA, coated human ICOS-mFc, N=1
T2 construct: Bought fusion; also called hICOS; recombinant human ICOS protein; not shown: mouse Fc
T2 sequence: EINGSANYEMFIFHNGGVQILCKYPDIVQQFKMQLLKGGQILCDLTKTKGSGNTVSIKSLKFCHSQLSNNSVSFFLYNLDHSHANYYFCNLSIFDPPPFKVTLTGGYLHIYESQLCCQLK
Procedure: as §1, §2, §3

[3] = target: T1, mouse ICOS-mFc (Chimerigen); experiment: DELFIA ELISA, coated mouse ICOS-mFc, N=2
Procedure: as §1, §2, §3

[4] = target: T1, mouse ICOS-mFc (Chimerigen); experiment: DELFIA ELISA, coated mouse ICOS-mFc, mean (only N=1 kept)
Procedure: as §1, §2, §3

[5] = target: T1, mouse ICOS-mFc (Chimerigen); experiment: HTRF neutralisation of mouse B7-H2 binding to mouse ICOS-mFc, mean as told in text (table prints 5.07)
Procedure: (§4) After incubation, assay was read on Envision plate reader (Perkin Elmer) using a standard HTRF protocol. 620 nm and 665 nm channel values were exported to Microsoft Excel and % Delta-F and % Neutralisation calculations performed. Titration curves and IC50 values [M] were plotted using Graphpad (Prism). IC50 values were calculated by first transforming the data using equation X=Log(X). The transformed data was then fitted using nonlinear regression, using fitting algorithm, log (inhibitor) vs. response-variable slope (four parameters).

[6] = target: T1, mouse ICOS-mFc (Chimerigen); experiment: HTRF neutralisation of mouse B7-H2 binding to mouse ICOS-mFc, average
Procedure: 5 μl of human ICOS-mFc (Chimerigen) at 20 nM (5 nM final) or 5 μl of mouse ICOS-mFc (Chimerigen) at 4 nM (1 nM final) were added to relevant assay wells. Plate was incubated for 1 hour (hr) at room temperature (RT).
as §4

[7] = target: T2, human ICOS-mFc (Chimerigen); experiment: DELFIA ELISA, coated human ICOS-mFc, N=2
Procedure: as §1, §2, §3

Row | EC50 [1] | EC50 [2] | EC50 [3] | EC50 [4] | IC50 [5] | IC50 [6] | EC50 [7] | Binder
1 | 0.288 nM | 0.51 nM | 0.252 nM | – | – | – | – | B1
2 | – | – | – | 23.6 nM | 5.16 nM | 5.07 nM | 15.3 nM | B2
